Numbering of substitutions follows the chain as printed. Names and notes keep the numbering of the source.
B1: TB-A H_F68L (scFv)
scFv: DIVMTQSPSSLSASVGDRVTLTCTASQSVSNDVVWYQQRPGKAPKLLIYSAFNRYTGVPSRFSGRGYGTDFTLTISSLQPEDVAVYYCQQDYNSPRTFGQGTKLEVKRGGGGSGGGGSGGGGSGGGGSQVQLVQSGAEVKKPGASVKVSCTASGYTFTHYGMNWVRQAPGKGLEWMGWINTYTGEPTYADKFKDRLTFSLETSASTVYMELTSLTSDDTAVYYCARERGDAMDYWGQGTLVTVSS
B2: TB-A H_M48L/F68I (scFv)
scFv: B1 scFv with M176L, L196I
B3: TB-A H_F70L/L72R (scFv)
scFv: B1 scFv with L196F, F198L, L200R
notes: also called TB-A H70/72
B4: TB-A H_F68A (scFv)
scFv: B1 scFv with L196A
B5: TB-A H_F68V/F70L (scFv)
scFv: B1 scFv with L196V, F198L
B6: TB-A H_K43R/F68I (scFv)
scFv: B1 scFv with K171R, L196I
B7: TB-A Linker_G2R H_F68L (scFv)
scFv: B1 scFv with G110R
B8: TB-A H_F70L (scFv)
scFv: B1 scFv with L196F, F198L
B9: TB-B L46 (scFv)
scFv: DIVLTQSPSSLSASVGDRVTLTCTASQSVSNDVVWYQQRPGKAPKLLIYSAFNRYTGVPSRFSGSGSGTEFTLTISSLQPEDVAVYYCQQDYNSPRTFGQGTKLEVKRGGGGSGGGGSGGGGSGGGGSQVQLVQSGAEVKKPGASVKVSCTASGYSFTHYGMNWVRQAPGQGLEWMGWINTYTGEPTYADKFKDRVTLTRDTSIGTVYMELTSLTSDDTAVYYCARERGDAMDYWGQGTLVTVSS
notes: Differs from TB-B only at position 46 of VL (R to L); also called TB-B R46L

Columns and labels:
recombinant human TNFα [1] = biological target: T1, recombinant human TNFα (human, UniProt P01375 77-233); experiment: cell-based or functional assay
T1 sequence (P01375 77-233 limits assumed): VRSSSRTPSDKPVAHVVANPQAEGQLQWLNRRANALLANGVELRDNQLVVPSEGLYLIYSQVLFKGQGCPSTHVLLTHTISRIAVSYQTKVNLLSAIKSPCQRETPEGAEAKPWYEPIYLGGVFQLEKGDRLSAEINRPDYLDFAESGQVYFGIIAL

recombinant human TNFα [2] = biological target: T1, recombinant human TNFα; experiment: ELISA on recombinant human TNFα
recombinant human TNFα [3] = biological target: T1, recombinant human TNFα; experiment: ELISA on recombinant human TNFα (FIG. 4A)

Row | Binder | Relative potency: EC50X/EC50TB-A, KYM-1 cells (recombinant human TNFα [1]) [ratio EC50X/EC50TB-A] | Relative potency: EC50X/EC50TB-A, L929 cells (recombinant human TNFα [1]) [ratio EC50X/EC50TB-A] | binding result (recombinant human TNFα [2]) | Kd (recombinant human TNFα [3]) [nM]
1 | B1 | 1.5 | 1.32 | – | –
2 | B2 | 1.6 | 1.1 | – | –
3 | B3 | – | – | binds | –
4 | B4 | – | 1.14 | – | –
5 | B5 | – | 1.28 | – | –
6 | B6 | 1.5 | 1.37 | – | –
7 | B7 | 1.3 | 0.8 | – | –
8 | B8 | – | 2.7 | – | –
9 | B9 | – | – | – | ~100

Reference: patent US20160185850A1 (ESBATECH AN ALCON BIOMEDICAL RESEARCH UNIT, published 2016)
